Measured values as given in patent publication US20160298120A1 (CHILDREN S HOSPITAL OF PHILADELPHIA, published 2016).

How the values were obtained:
[1] = target: T1, ATF2 (UniProt P15336 1-505, limits assumed); assay: co-immunoprecipitation from cell lysates, blot probed with anti-IRF1
T1 construct: Tested by co-immunoprecipitation with IRF1; no association
T1 sequence (looked up): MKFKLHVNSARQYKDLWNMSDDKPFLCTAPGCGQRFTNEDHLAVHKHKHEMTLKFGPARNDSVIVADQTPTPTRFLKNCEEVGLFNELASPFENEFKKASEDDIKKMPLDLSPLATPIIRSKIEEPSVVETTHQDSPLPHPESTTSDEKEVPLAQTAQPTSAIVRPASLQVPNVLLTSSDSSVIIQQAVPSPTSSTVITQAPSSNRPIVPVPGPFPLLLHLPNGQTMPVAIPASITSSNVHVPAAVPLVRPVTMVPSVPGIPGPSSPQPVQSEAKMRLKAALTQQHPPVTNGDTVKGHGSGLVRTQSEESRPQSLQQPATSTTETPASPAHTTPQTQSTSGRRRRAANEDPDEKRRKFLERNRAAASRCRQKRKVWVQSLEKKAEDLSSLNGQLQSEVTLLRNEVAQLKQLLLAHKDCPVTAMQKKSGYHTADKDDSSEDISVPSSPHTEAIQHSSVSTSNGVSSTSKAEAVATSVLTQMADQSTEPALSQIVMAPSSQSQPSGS

[2] = target: T2, HAT1 (UniProt O14929 2-419, limits assumed); assay: as above
T2 construct: Tested by co-immunoprecipitation with IRF1; no association
T2 sequence (looked up): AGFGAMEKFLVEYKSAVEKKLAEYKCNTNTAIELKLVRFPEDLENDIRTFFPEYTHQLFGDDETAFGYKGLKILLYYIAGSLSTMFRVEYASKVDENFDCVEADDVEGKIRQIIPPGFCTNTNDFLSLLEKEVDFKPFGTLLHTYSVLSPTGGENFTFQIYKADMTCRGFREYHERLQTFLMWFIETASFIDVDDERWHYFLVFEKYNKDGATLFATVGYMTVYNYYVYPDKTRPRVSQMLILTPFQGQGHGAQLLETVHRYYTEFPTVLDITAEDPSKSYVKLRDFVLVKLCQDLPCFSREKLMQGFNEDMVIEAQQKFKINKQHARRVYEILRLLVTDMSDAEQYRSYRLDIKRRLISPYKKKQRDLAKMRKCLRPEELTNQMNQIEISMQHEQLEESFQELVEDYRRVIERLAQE

binding result [1]: no binding | binding result [2]: no binding
B1: Interferon regulatory factor 1 (IRF1) (other, UniProt P10914 1-325, looked up)
chain: MPITRMRMRPWLEMQINSNQIPGLIWINKEEMIFQIPWKHAAKHGWDINKDACLFRSWAIHTGRYKAGEKEPDPKTWKANFRCAMNSLPDIEEVKDQSRNKGSSAVRVYRMLPPLTKNQRKERKSKSSRDAKSKAKRKSCGDSSPDTFSDGLSSSTLPDDHSSYTVPGYMQDLEVEQALTPALSPCAVSSTLPDWHIPVEVVPDSTSDLYNFQVSPMPSTSEATTDEDEEGKLPEDIMKLLEQSEWQPTNVDGKGYLLNEPGVQPTSVYGDFSCKEEPEIDSPGGDIGLSLQRVFTDLKNMDATWLDSLLTPVRLPSIQAIPCAP
notes: Endogenous protein from MonoMac6 lysates, detected with anti-IRF1 on the blot after co-immunoprecipitation
